# Patent publication US20090099343A1
# “And” between values parts separate entries of the source, which are not always exact repeats. Equal entries are not always repeated.
# Molecular target: T1, PrP^Sc, pathogenic prion protein in brain homogenate of RML PrP^Sc+ Balb-c mice (mouse), P04925
# Test: bead pull-down from PrP^Sc+ mouse brain homogenate; ELISA
# T1 sequence (P04925 23-230 limits assumed): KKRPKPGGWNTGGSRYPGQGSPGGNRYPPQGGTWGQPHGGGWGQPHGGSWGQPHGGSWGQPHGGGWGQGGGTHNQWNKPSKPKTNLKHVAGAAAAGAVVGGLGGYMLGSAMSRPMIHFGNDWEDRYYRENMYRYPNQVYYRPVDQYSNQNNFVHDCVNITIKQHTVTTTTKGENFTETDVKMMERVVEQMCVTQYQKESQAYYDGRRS
row,Binder,ELISA A405nm [A405nm]
1,KKRPKGGG (modifications not checked) [Peptide reagent SEQ ID NO:121],0.509
2,KKRPKGGG (modifications not checked) [Peptide reagent SEQ ID NO:120],0.631
3,KKRPKGGG (modifications not checked) [Peptide reagent SEQ ID NO:119],0.61
4,KKRPKGGG (modifications not checked) [Peptide reagent SEQ ID NO:122],0.503

# Molecular target: T1, PrP^Sc, pathogenic prion protein in …
# Test: bead pull-down, NaCl dissociation of bound PrP^Sc; Western blot
row,Binder,recovery rate following 1.0 M NaCl elution
1,GGGKKRPKPGG (modifications not checked) [Peptide reagent SEQ ID NO:68],40% and 50%
2,GGGKKKKKKKK (modifications not checked) [Peptide reagent SEQ ID NO:85],40% and 50%
